Source: paper PMC5707411
pKd: −log10 of the molar value.

What was measured:
[1] = biological target: 5C4 IgG; test: flow cytometry on cells; settings: full-length pre-F variants expressed in Expi293 cells, read off a plot
[2] = biological target: D25 IgG; test: flow cytometry on cells; settings: full-length pre-F variants expressed in Expi293 cells, read off a plot
[3] = biological target: 5C4 IgG; test: flow cytometry on cells; settings: full-length pre-F variants expressed in Expi293 cells; parent: est. 0.04; read off a plot
[4] = biological target: D25 IgG; test: flow cytometry on cells; settings: full-length pre-F variants expressed in Expi293 cells; parent: est. 0.14; read off a plot
[5] = biological target: RSV F (+) FdTHS based on strain A2 (wild-type A2 RSV F ectodomain fused to a C-terminal trimerization motif) (respiratory syncytial virus subtype A, strain A2) (UniProt Q4KRW9); test: crystal structure; 5C4 Fab co-expressed with RSV F (+) FdTHS in Expi293, complex purified (Ni-NTA, Strep-Tactin, thrombin, Superose 6); crystal from 0.2 M ammonium acetate, 0.1 M Bis-Tris pH 6.5, 25% PEG 3350; 3.4 Å
[6] = biological target: full-length RSV F (TM, residues 1–574) from strain 18537 with the DS-Cav1 prefusion-stabilizing mutations (respiratory syncytial virus subtype B, strain 18537) (UniProt P13843)
[7] = biological target: prefusion-stabilized RSV F strain A2 (DS-Cav1); test: SPR

**Q.** Which other: Relative binding (fractional binding relative to motavizumab) ([1]; parent: est. 0.005) does the source give for “full-length RSV F (TM, residues 1–574) from strain 18537 with the DS-Cav1 prefusion-stabilizing mutations (from UniProt P13843) N201R” here?
**A.** The other: Relative binding (fractional binding relative to motavizumab) was 0.4.

**Q.** And the other: Relative binding (fractional binding relative to motavizumab) ([2]; parent: est. 0.14)?
**A.** Its other: Relative binding (fractional binding relative to motavizumab) is 0.01.

**Q.** With “full-length RSV F (TM, residues 1–574) from strain 18537 with the DS-Cav1 prefusion-stabilizing mutations (from UniProt P13843) R213S” as the substance, how does the other: Relative binding (fractional binding relative to motavizumab) [3] read?
**A.** The other: Relative binding (fractional binding relative to motavizumab) was 0.01.

**Q.** What about the other: Relative binding (fractional binding relative to motavizumab) [4] of the same substance?
**A.** The other: Relative binding (fractional binding relative to motavizumab) was 0.05.

**Q.** “full-length RSV F (TM, residues 1–574) from strain A2 with the DS-Cav1 prefusion-stabilizing mutations K209Q” was tested. Which other: Relative binding (fractional binding relative to motavizumab) ([1]; parent: est. 0.75) did it give?
**A.** Its other: Relative binding (fractional binding relative to motavizumab) is 0.61.

**Q.** What about the other: Relative binding (fractional binding relative to motavizumab) ([2]; parent: est. 0.69) of the same substance?
**A.** The other: Relative binding (fractional binding relative to motavizumab) was 0.54.

**Q.** “full-length RSV F (TM, residues 1–574) from strain 18537 with the DS-Cav1 prefusion-stabilizing mutations (from UniProt P13843) R202Q” was tested. Which other: Relative binding (fractional binding relative to motavizumab) [3] did it give?
**A.** Its other: Relative binding (fractional binding relative to motavizumab) is 0.01.

**Q.** What about the other: Relative binding (fractional binding relative to motavizumab) [4] of the same substance?
**A.** Its other: Relative binding (fractional binding relative to motavizumab) is 0.37.

**Q.** Which results are given for “full-length RSV F (TM, residues 1–574) from strain A2 with the DS-Cav1 prefusion-stabilizing mutations N67T”?
**A.** other: Relative binding (fractional binding relative to motavizumab) ([1]; parent: est. 0.75): 0.6; other: Relative binding (fractional binding relative to motavizumab) ([2]; parent: est. 0.69): 0.61

**Q.** “full-length RSV F (TM, residues 1–574) from strain A2 with the DS-Cav1 prefusion-stabilizing mutations Q202R” was tested. Which other: Relative binding (fractional binding relative to motavizumab) ([1]; parent: est. 0.75) did it give?
**A.** Its other: Relative binding (fractional binding relative to motavizumab) is 0.73.

**Q.** What about the other: Relative binding (fractional binding relative to motavizumab) ([2]; parent: est. 0.69) of the same substance?
**A.** Its other: Relative binding (fractional binding relative to motavizumab) is 0.63.

**Q.** “full-length RSV F (TM, residues 1–574) from strain 18537 with the DS-Cav1 prefusion-stabilizing mutations (from UniProt P13843) N201A” was tested. Which other: Relative binding (fractional binding relative to motavizumab) ([1]; parent: est. 0.005) did it give?
**A.** The other: Relative binding (fractional binding relative to motavizumab) was 0.01.

**Q.** What about the other: Relative binding (fractional binding relative to motavizumab) ([2]; parent: est. 0.14) of the same substance?
**A.** Its other: Relative binding (fractional binding relative to motavizumab) is 0.003.

**Q.** Which results are given for “full-length RSV F (TM, residues 1–574) from strain 18537 with the DS-Cav1 prefusion-stabilizing mutations (from UniProt P13843) Q209K”?
**A.** other: Relative binding (fractional binding relative to motavizumab) [3]: 0.19; other: Relative binding (fractional binding relative to motavizumab) [4]: 0.58

**Q.** With “RSV F (+) FdTHS based on strain A2 (wild-type A2 RSV F ectodomain fused to a C-terminal trimerization motif) (from UniProt Q4KRW9 1-391) (complex)” as the substance, how does the stoichiometry N [5] read?
**A.** The stoichiometry N was 3.

**Q.** “full-length RSV F (TM, residues 1–574) from strain 18537 with the DS-Cav1 prefusion-stabilizing mutations (from UniProt P13843) T67N” was tested. Which other: Relative binding (fractional binding relative to motavizumab) [3] did it give?
**A.** The other: Relative binding (fractional binding relative to motavizumab) was 0.15.

**Q.** And the other: Relative binding (fractional binding relative to motavizumab) [4]?
**A.** The other: Relative binding (fractional binding relative to motavizumab) was 0.53.

**Q.** With “full-length RSV F (TM, residues 1–574) from strain A2 with the DS-Cav1 prefusion-stabilizing mutations K201N” as the substance, how does the other: Relative binding (fractional binding relative to motavizumab) ([1]; parent: est. 0.60) read?
**A.** The other: Relative binding (fractional binding relative to motavizumab) was 0.012.

**Q.** What about the other: Relative binding (fractional binding relative to motavizumab) ([1]; parent: est. 0.75) of the same substance?
**A.** Its other: Relative binding (fractional binding relative to motavizumab) is 0.01.

**Q.** What about the other: Relative binding (fractional binding relative to motavizumab) ([2]; parent: est. 0.63) of the same substance?
**A.** The other: Relative binding (fractional binding relative to motavizumab) was 0.64.

**Q.** And the other: Relative binding (fractional binding relative to motavizumab) ([2]; parent: est. 0.69)?
**A.** Its other: Relative binding (fractional binding relative to motavizumab) is 0.67.

**Q.** For 5C4 IgG (antibody), which EC50 of 5C4 neutralisation of mKate-RSV B strain 18537 wild-type virus on HEp-2 cells (viral F without DS-Cav1; antibody format not given) [6] is on record?
**A.** Its EC50 of 5C4 neutralisation of mKate-RSV B strain 18537 wild-type virus on HEp-2 cells (viral F without DS-Cav1; antibody format not given) is 9.15 µg/mL.

**Q.** Which other: Relative binding (fractional binding relative to motavizumab) ([1]; parent: est. 0.75) does the source give for “full-length RSV F (TM, residues 1–574) from strain A2 with the DS-Cav1 prefusion-stabilizing mutations S213R” here?
**A.** The other: Relative binding (fractional binding relative to motavizumab) was 0.7.

**Q.** And the other: Relative binding (fractional binding relative to motavizumab) ([2]; parent: est. 0.69)?
**A.** The other: Relative binding (fractional binding relative to motavizumab) was 0.65.

**Q.** What does the source list for “full-length RSV F (TM, residues 1–574) from strain A2 with the DS-Cav1 prefusion-stabilizing mutations D200N”?
**A.** other: Relative binding (fractional binding relative to motavizumab) ([1]; parent: est. 0.75): 0.74; other: Relative binding (fractional binding relative to motavizumab) ([2]; parent: est. 0.69): 0.67

**Q.** Which other: Relative binding (fractional binding relative to motavizumab) [3] does the source give for “full-length RSV F (TM, residues 1–574) from strain 18537 with the DS-Cav1 prefusion-stabilizing mutations (from UniProt P13843) N200D” here?
**A.** The other: Relative binding (fractional binding relative to motavizumab) was 0.01.

**Q.** What about the other: Relative binding (fractional binding relative to motavizumab) [4] of the same substance?
**A.** The other: Relative binding (fractional binding relative to motavizumab) was 0.33.

**Q.** What does the source list for “full-length RSV F (TM, residues 1–574) from strain A2 with the DS-Cav1 prefusion-stabilizing mutations A74T”?
**A.** other: Relative binding (fractional binding relative to motavizumab) ([1]; parent: est. 0.75): 0.7; other: Relative binding (fractional binding relative to motavizumab) ([2]; parent: est. 0.69): 0.68

**Q.** For “full-length RSV F (TM, residues 1–574) from strain 18537 with the DS-Cav1 prefusion-stabilizing mutations (from UniProt P13843) N201K”, which other: Relative binding (fractional binding relative to motavizumab) [3] is on record?
**A.** The other: Relative binding (fractional binding relative to motavizumab) was 0.52.

**Q.** And the other: Relative binding (fractional binding relative to motavizumab) [4]?
**A.** The other: Relative binding (fractional binding relative to motavizumab) was 0.35.

**Q.** And the other: Relative binding (fractional binding relative to motavizumab) ([1]; parent: est. 0.005)?
**A.** Its other: Relative binding (fractional binding relative to motavizumab) is 0.44.

**Q.** And the other: Relative binding (fractional binding relative to motavizumab) ([2]; parent: est. 0.14)?
**A.** The other: Relative binding (fractional binding relative to motavizumab) was 0.35.

**Q.** How did the other: Relative binding (fractional binding relative to motavizumab) ([1]; parent: est. 0.60) turn out when “full-length RSV F (TM, residues 1–574) from strain A2 with the DS-Cav1 prefusion-stabilizing mutations K201A” was run?
**A.** The other: Relative binding (fractional binding relative to motavizumab) was 0.02.

**Q.** And the other: Relative binding (fractional binding relative to motavizumab) ([2]; parent: est. 0.63)?
**A.** Its other: Relative binding (fractional binding relative to motavizumab) is 0.64.

**Q.** With “full-length RSV F (TM, residues 1–574) from strain 18537 with the DS-Cav1 prefusion-stabilizing mutations (from UniProt P13843) T74A” as the substance, how does the other: Relative binding (fractional binding relative to motavizumab) [3] read?
**A.** Its other: Relative binding (fractional binding relative to motavizumab) is 0.01.

**Q.** And the other: Relative binding (fractional binding relative to motavizumab) [4]?
**A.** The other: Relative binding (fractional binding relative to motavizumab) was 0.13.

**Q.** What does the source list for “full-length RSV F (TM, residues 1–574) from strain A2 with the DS-Cav1 prefusion-stabilizing mutations K201R”?
**A.** other: Relative binding (fractional binding relative to motavizumab) ([1]; parent: est. 0.60): 0.61; other: Relative binding (fractional binding relative to motavizumab) ([2]; parent: est. 0.63): 0.64

**Q.** D25 Fab was tested. Which pKd [7] did it give?
**A.** Its pKd is over 10.11.

**Q.** What about the koff [7] of the same substance?
**A.** The koff was under 1e-05 s⁻¹.
